Laboratory results published in paper PMC6150820 (ACS chemical biology, 2018).

Assays:
[1] = target: T1, E. faecalis Fsr QS circuit (gelE promoter) (Enterococcus faecalis, UniProt A0ACD6TCR9); type: cell-based, E. faecalis TX5274; conditions: EC50 ratio relative to GBAP; for Fold Change relative to GBAP, loss in potency: parentheses = loss
[2] = target: T1, E. faecalis Fsr QS circuit (gelE promoter); conditions: cited from earlier work; for EC50: read-out: EC50 [95% CI], previously published analog shown for comparison
[3] = tested on: wild type E. faecalis cells (strain TX4002); assay: Biofilm formation phenotypic assay; type: cell-based; conditions: exogenous GBAP added to wild type TX4002 cells

Substance | Fold Change relative to GBAP, improvement in potency ([1]; no parentheses = improvement) | EC50 [2] | increase in the amount of biofilm formation [3] | Fold Change relative to GBAP, loss in potency [1] | agonist activity [2]
Ac-GBAP-Des(Q1N2) (SPNIFGQWM; not fully specified; N-acetyl tail; lactone macrocycle) [Peptide 10] | 1.1 fold | 1.01 nM |  |  | 
GBAP (SPNIFGQWM; not fully specified; N-terminal QN tail; lactone macrocycle) [Peptide 1, reference compound] |  | 1.15 nM | 30–50% |  | 
GBAP-Des(Q1N2) lactam (SPNIFGQWM; head-to-tail lactam cyclization) [Peptide 11] |  | > 10000 nM |  | (> 10,000) fold | completely inactive
GBAP-G8A [Peptide 2] |  | > 10000 nM |  | (> 10,000) fold | complete loss of activity
GBAP-f7 [Peptide 4] |  | 4.97 nM |  |  | 
GBAP-s3 [Peptide 12] |  | 45.1 nM |  |  | 
